Source: US20210371491A1, “CHIMERIC ANTIGEN RECEPTORS THAT BIND TO PROSTATE SPECIFIC MEMBRANE ANTIGEN” (Albert-Ludwigs-Universitaet Freiburg, priority 2018, published 2021)

Target: prostate specific membrane antigen (PSMA) (UniProt Q04609)
Experiment: cell-based or functional assay

Chain of prostate specific membrane antigen (PSMA) (Q04609 whole entry, form in doubt): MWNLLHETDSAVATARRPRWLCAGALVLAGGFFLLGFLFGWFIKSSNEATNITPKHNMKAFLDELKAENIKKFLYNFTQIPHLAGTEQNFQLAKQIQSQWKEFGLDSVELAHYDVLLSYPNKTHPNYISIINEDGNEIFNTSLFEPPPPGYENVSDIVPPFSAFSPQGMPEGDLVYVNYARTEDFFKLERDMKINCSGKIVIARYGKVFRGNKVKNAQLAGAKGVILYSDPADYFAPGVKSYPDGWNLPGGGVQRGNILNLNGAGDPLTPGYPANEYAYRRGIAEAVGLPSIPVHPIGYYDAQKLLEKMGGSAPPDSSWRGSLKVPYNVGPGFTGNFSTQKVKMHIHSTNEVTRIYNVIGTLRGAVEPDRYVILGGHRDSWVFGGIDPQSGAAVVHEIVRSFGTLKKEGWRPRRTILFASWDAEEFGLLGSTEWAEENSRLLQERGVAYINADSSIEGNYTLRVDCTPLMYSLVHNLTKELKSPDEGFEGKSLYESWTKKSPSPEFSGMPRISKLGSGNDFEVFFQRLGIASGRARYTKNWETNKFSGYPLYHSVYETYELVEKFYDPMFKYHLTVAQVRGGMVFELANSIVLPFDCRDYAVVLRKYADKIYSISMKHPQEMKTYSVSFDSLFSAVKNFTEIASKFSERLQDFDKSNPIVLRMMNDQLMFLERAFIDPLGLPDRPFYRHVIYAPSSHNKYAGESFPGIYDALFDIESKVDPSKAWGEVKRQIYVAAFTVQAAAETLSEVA

- percentage of CD69-positive CAR Jurkat cells after 24 h stimulation with PSMA-positive tumor cells (C4-2, LNCaP), E:T 1:1: 70%
Substance: CAR28 (J591), anti-PSMA CAR with scFv derived from antibody J591
